One block for each binder: values may come before it. Positions of bridges follow the written chain, without caps; N, C: chain ends. Non-standard residues stand in square brackets, D forms with d. Primed or numbered codes have the meaning given here. Chains are numbered I, II in the order given. No end group written: not given here. *: point of attachment. Palmitoyl = CCCCCCCCCCCCCCCC(=O)*; Nle = CCCC[C@H](N)C(=O)O; PEG2″ = not defined here
What was measured:
[1] = target: T1, human serum albumin (HSA) (human, UniProt P02768 25-609); experiment: fluorescence polarization
[2] = target: T2, human Kallikrein-related peptidase 7 (hKLK7) (human, UniProt P49862 30-253); experiment: substrate-based activity assay
T2 construct: Active protease in substrate-based activity assays; also called stratum corneum chymotryptic enzyme (SCCE)
T2 sequence (P49862 30-253 limits assumed): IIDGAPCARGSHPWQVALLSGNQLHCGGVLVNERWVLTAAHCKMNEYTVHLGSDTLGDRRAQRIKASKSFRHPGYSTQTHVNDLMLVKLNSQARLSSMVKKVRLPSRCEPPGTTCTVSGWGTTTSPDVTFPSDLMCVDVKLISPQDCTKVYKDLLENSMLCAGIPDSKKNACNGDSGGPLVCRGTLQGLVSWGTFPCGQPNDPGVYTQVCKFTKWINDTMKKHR

[3] = target: T1, human serum albumin (HSA); experiment: fluorescence polarization, dilution series of human serum
[4] = target: T3, human Kallikrein-related peptidase 5 (hKLK5) (human, UniProt Q9Y337 67-293, limits assumed); experiment: activity assay in the presence of 25 µM HSA
T3 construct: Active protease in substrate-based activity assays; also called stratum corneum tryptic enzyme (SCTE)
T3 sequence (Q9Y337 67-293 limits assumed): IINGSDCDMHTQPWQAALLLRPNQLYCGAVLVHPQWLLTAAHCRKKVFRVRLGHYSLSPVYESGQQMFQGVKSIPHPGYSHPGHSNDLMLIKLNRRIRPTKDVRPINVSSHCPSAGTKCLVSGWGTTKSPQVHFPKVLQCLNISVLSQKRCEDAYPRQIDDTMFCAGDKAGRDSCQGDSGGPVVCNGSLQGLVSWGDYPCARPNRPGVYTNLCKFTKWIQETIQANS

[5] = target: mouse KLK5 (mKLK5) (mouse); experiment: substrate-based activity assay, same conditions as for hKLK
[6] = target: T4, FXIIa (Factor XIIa) (human, UniProt P00748 373-615, limits assumed); experiment: substrate-based activity assay
T4 sequence (looked up): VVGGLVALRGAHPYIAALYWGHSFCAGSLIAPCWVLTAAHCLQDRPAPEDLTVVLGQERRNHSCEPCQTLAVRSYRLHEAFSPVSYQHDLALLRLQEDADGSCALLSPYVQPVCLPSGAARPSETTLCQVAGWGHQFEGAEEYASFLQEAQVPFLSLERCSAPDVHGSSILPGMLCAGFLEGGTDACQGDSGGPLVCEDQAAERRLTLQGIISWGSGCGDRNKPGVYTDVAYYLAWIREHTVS

[7] = target: T3, human Kallikrein-related peptidase 5 …; experiment: substrate-based activity assay
[8] = target: T5, mouse serum albumin (MSA) (mouse, UniProt P07724 25-608); experiment: fluorescence polarization, dilution series of mouse albumin in PBS
T5 construct: also called mouse albumin
T5 sequence (P07724 25-608 limits assumed): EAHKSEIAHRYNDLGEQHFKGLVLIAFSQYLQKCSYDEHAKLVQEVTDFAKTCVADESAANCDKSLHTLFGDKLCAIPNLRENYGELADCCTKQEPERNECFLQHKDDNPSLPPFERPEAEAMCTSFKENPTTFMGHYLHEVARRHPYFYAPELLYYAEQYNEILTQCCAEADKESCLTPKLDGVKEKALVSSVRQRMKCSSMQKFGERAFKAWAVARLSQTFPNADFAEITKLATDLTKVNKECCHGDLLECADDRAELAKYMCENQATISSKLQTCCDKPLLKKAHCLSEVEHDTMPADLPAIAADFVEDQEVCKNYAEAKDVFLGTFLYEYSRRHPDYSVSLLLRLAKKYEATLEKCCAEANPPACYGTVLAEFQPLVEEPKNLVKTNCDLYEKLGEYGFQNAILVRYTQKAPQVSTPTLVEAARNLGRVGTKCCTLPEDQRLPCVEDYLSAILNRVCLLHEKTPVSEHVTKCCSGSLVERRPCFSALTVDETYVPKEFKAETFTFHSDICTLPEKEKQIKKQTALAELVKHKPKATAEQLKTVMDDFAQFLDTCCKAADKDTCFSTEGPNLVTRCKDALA

[9] = target: T2, human Kallikrein-related peptidase 7 …; experiment: activity assay in the presence of 25 µM HSA
[10] = target: mouse KLK7 (mKLK7) (mouse, UniProt Q91VE3 26-249); experiment: substrate-based activity assay, same conditions as for hKLK
Chain of mouse KLK7 (mKLK7) (Q91VE3 26-249 limits assumed): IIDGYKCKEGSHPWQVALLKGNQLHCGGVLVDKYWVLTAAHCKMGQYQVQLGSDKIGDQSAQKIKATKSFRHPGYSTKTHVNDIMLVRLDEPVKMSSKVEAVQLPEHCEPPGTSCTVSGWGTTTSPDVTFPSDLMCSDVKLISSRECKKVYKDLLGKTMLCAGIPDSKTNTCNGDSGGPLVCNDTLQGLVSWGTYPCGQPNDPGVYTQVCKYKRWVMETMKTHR

Kd [1]: 147 nM
B1: peptide 284 (albumin tag variant, 2-naphthalenecarboxylic acid) (peptide)
peptide: EYEKEYEK
modifications: not fully specified; N-terminal cap based on peptide 266 with 2-naphthalenecarboxylic acid; Lys 4 side chain acylated with palmitic acid; 5(6)-FAM on the side chain of the additional C-terminal Lys

Ki [2]: 7 nM
B2: peptide 114 with norleucine in position five (peptide)
peptide: PCLY[Nle]ARC
modifications: linker 2-8 via 1,3‑dibromoacetone
notes: No peptide number is printed for the untagged norleucine derivative

Kd [3]: 119 nM
Ki [4]: 1.2 nM
IC50 [5]: 2 nM
B3: KLK5 inhibitor 035-tag (C-terminal albumin tag conjugate of 035) (peptide)
peptide 1: GCTRQYPCGKG
peptide 2: EYEK(Palmitoyl)EYE
modifications: bridge I:2-I:8; not fully specified (N-terminus, bridges); also: N-terminal fluorescein via PEG2, chain not given here, chain 2 tag joined via PEG2 to Lys10 side chain of chain 1

Ki [6]: 40000 nM
Ki [7]: 2.2 nM
B4: peptide 035 (lead KLK5 inhibitor) (peptide)
peptide: GCTRQYPC
modifications: linker 2-8 via 1,3‑dibromoacetone

Ki [2]: 16 nM
B5: peptide 096 (lead KLK7 inhibitor) (peptide)
peptide: PCLYLARCS
modifications: bridge 2-8; not fully specified (bridges)

binding result [3]: binds
Ki [4]: 23 nM
fold loss in activity against the cyclic peptide alone [4]: 10 fold
B6: N-terminal albumin tag conjugate of KLK5 inhibitor 035 (peptide)
peptide 1: GCTRQYPC
peptide 2: {5(6)‑carboxyfluorescein}-EYEK(Palmitoyl)EYE
modifications: bridge I:2-I:8; not fully specified (C-terminus, bridges); also: chain 2 C-terminus joined via PEG2 to chain 1 N-terminus, linker to a chain's N/C-terminus via PEG2

Kd [8]: 4200 nM
B7: albumin tag (F-tag) (peptide)
peptide: {fluorescein-PEG2″}-EYEK(Palmitoyl)EYE
notes: also called fluorescein-tag

Kd [1]: 132 nM
B8: peptide 282 (albumin tag variant, biphenyl-3-carboxylic acid) (peptide)
peptide: EYEKEYEK
modifications: not fully specified; N-terminal cap based on peptide 266 with biphenyl-3-carboxylic acid; Lys 4 side chain acylated with palmitic acid; 5(6)-FAM on the side chain of the additional C-terminal Lys

Kd [3]: 164 nM
Ki [9]: 32 nM
IC50 [10]: 20 nM
B9: KLK7 inhibitor 096-tag (C-terminal albumin tag conjugate of 096) (peptide)
peptide 1: PCLYLARCSGKG
peptide 2: EYEK(Palmitoyl)EYE
modifications: bridge I:2-I:8; not fully specified (N-terminus, bridges); also: N-terminal fluorescein via PEG2, chain not given here, chain 2 tag joined via PEG2 to Lys11 side chain of chain 1
